Biological target: ataxia-telangiectasia mutated (ATM) kinase, full-length human (human) (UniProt Q13315)
Experiment: negative-stain single-particle electron microscopy
Conditions: remark: other sources report otherwise

In the case of “ataxia-telangiectasia mutated (ATM) kinase, full-length human, Q13315 1-3056”, the percent of the particles that are dimers (% of the particles) is reported as 60.

— publication PMC4889239
